# Assay results from the nanobody polyreactivity screen of Harvey et al. (2022).
# Experiment: yeast display, Sf9 membrane polyspecificity reagent, FACS + sequencing; frameworks hold sequencing errors
# In short: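 Using colony PCR, genes from sorted yeast display clones were amplified, then sequenced on MiSeq at 2 × 250 and filtered by CDR length. The clones had been stained with 10% biotinylated, detergent-solubilized Sf9 membrane reagent for 1 hour at 4 °C and sorted by FACS into low and high (top ~1%) gates on anti-HA and streptavidin fluorescence. Polyreactivity labels come from the gate of origin.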
row,Sequence,polyreactivity (PSR sort gate)
1,QVQLVESGGGLVQAGGSLRLSCAASGFTIRRNAMGWYRQAPGKERELVAAISDRGGSTYYADSVKGRFTISRDTAKNTVYFQMTSLKPEDTAVYYCAAEPYAGPELDYWGQGTQVTVSS,high polyreactivity
2,QVQLVESGGGLVQAGGSLRLSCAASGFTIRRYAMGWYRQAPGKERELVAAITRSAGSTYYADSVKGRFTISRDNAKNTVYLQMNSLKPEDTAVYYCAARWTRWGADSGYYWGQGTQVTVSS,high polyreactivity
3,QVQLVESGGGLVQAGGSLRLSCAASGFTIRYYTMGWYRQAPGKERELVAAITWSGGRTYYADSVKGRFTISRDNAKNTVYLQMNSLKPEDTAVYYCAADVTKRASRDYYWGQGTQVTVSS,high polyreactivity
4,QVQLVESGGGLVQAGGSLRLSCAASGFTISYYAMGWYRQAPWKERELVASISSSGGRTYYADSVKGRFTISRDNAKNTVYLQMNSLKPEDTAVYYCAAVGGRSTRGYYWGQGTQVTVSS,high polyreactivity
5,QVQLVESGGGLVQAGGSLRLSCAASGFTITNYAMGWYRQAPGKERELVAAISTGGGRTYYADSVKGRFTISRDNAKNTVYLQMYSLKPEDTAVYYCAVVPYNISKTEQPGMDYWGQGTQVTVST,high polyreactivity
6,QVQLVESGGGLVQAGGSLRLSCAASGFTITRNTMGWYRQAPGKERELVAAITRGGSTNYADSVKGRFTISRDNAKNSVYLQMNSLKPEDTAVYYCNKGRNVVLVRTADDYWGQGTQVTVSS,low polyreactivity
7,QVQLVESGGGLVQAGGSLRLSCAASGFTIWWYAMRWYRQATGKERELVATITSGGRTYYADSVKGRFTISRDNAKNTDYLQMNSLKPEDTAVYYCAAESEVGYVYDPMYYWGQGTQVTVSS,high polyreactivity
8,QVQLVESGGGLVQAGGSLRLSCAASGFTIYAYTMGWYRQAPGKERDLVASITSRGGTTYYADSVKGRFTISRDNEKNTVYLQMNSLKPEDTAVYYCNARGYFGWYAMDYCGQGTQVTVSS,high polyreactivity
9,QVQLVESGGGLVQAGGSLRLSCAASGFTIYGNAMGWSRQAPGKERELVAAITWRGGSTYYADSVKGRFTISRDNAKNTVYLQMNSLKPEDTAVYYCAARWLLGYYRYDYWGQGTQVTVSS,high polyreactivity
10,QVQLVESGGGLVQAGGSLRLSCAASGFTIYGYVMGWYRQAPGKERELVAAISWSGGSTYYADSVKGRFTISRDNAKNTVYLQMNSLKPEDTAVYYCAAEGWSDYTSRLYDYWGQGTQVTVSS,low polyreactivity
11,QVQLVESGGGLVQAGGSLRLSCAASGFTIYNNVMVWYRQAPGKERELVAAITSSGGRTYYADSVKGRFTISRDIAKNTVYLQMNSLKPEDTAVYYCNALYFRKGGYWGQGTQVTVSS,high polyreactivity
12,QVQLVESGGGLVQAGGSLRLSCAASGFTIYYYAMGWDRQAPGKERELVASITSGGSTYYADSVKGRFTISRDNAKNTVYLQMNSLKPEDTAVYYCAADYYSPSLRYDYWGQGTQVTVSS,low polyreactivity
13,QVQLVESGGGLVQAGGSLRLSCAASGFTLADNTMGWYRQAPGKERQLVATISSDGNTNYADSVKGRFTISRDNAKNTVYLQMNSLKPEDTAVYYCNAEGVFGDVRSGFYWYDYWGQGTQVTVSS,low polyreactivity
14,QVQLVESGGGLVQAGGSLRLSCAASGFTLDDNGMGWYRPAPGKECELVESITWSGGSTDYADSVKGRFTISRDTAKNTVYLQMNSLKPEDTAVYSCNVGDPIGGFLSYWGGDYWGQGTQVTVSS,low polyreactivity
15,QVQLVESGGGLVQAGGSLRLSCAASGFTLFANVMGWYRQAPGKERELVAAISWRSGNTYYADSVKGRFTISRDNAKNTVYLQMNSLKPEDTAVYYCAADTTGDQHSWGTSGIIEGDYWGQGTQVTVSS,low polyreactivity
16,QVQLVESGGGLVQAGGSLRLSCAASGFTLFQNAMGWYRQAPGKERELVAAISTGGSTYYADSVKGRFTISRDNAKNTVYLQMNSLKPEDTAVYYCAAVWPYRGSRKYYSWGQGTQVTVSS,high polyreactivity
17,QVQLVESGGGLVQAGGSLRLSCAASGFTLFTNAMGWYRQAPWKERELLARISRGGSTKYADSVKGRFTISRDNAKNTVYLQMNSLKREDTAVYSCATGYYGYRYGYWGQGTQVTVSS,high polyreactivity
18,QVQLVESGGGLVQAGGSLRLSCAASGFTLGVYTMGGSRQAPGKVRELVARITSGGRTYSADSVKGRFTISRDNAKNSVYLQMNSLQPEDTAVYYCAKVDGRRTYYTVHRYERDYWGQGTQVTVSS,low polyreactivity
19,QVQLVESGGGLVQAGGSLRLSCAASGFTLIHYAMGWYRQATGKERELVAGITTSGGSTYYADSVKGRFTFSRDNAKNTVYLQMTSLKPEDTAVYYCNRLTRRWYSLRSYDYWGQGTQVTVSS,high polyreactivity
20,QVQLVESGGGLVQAGGSLRLSCAASGFTLKQYAMGWYRQAPGKERELVAAIRWSGGSTNYADSVKGRFTISRDNAKNTVYLQMNSLKPEDTAVYYCAADFRTPYFGIRYGYWGQGTQVTVSS,high polyreactivity
21,QVQLVESGGGLVQAGGSLRLSCAASGFTLLGYAMGWYRQAPGKERELVAAISYSGVSTDYADSVKGRFTISRDNAKNTVYLQMNSLKPEDTAVSYCIAVSTDSFLQDYNYWGQGTQVTVSS,low polyreactivity
22,QVQLVESGGGLVQAGGSLRLSCAASGFTLQQYTMGWYRQAPGKERELVAAISTSGVRTYYADSVKGRFTISRDNAKNTVYLQMNSLKPEDTAVYYCNAKVRKSRFYYWGQGTQVTVSS,high polyreactivity

row,Sequence,polyreactivity (PSR sort gate)
1,QVQLVESGGGLVQAGGSLRLSCAASGFTLRVNAMGWYRHPPGKERELVAAISDSGGDTYYADSVKGRFTISRDNAKNTVYLQMNSLKPEDTAVYYCAADDGSENDYWGQGTQVTVSS,low polyreactivity
2,QVQLVESGGGLVQAGGSLRLSCAASGFTLTQNAMGWYRQAPGKERELVAAISRSGGRTYYADSVKGRFTISRDNAKNTVYLQMNSLKPEDTAVYYCNAYVTYPGTTMDDWGQGTQVTVSS,high polyreactivity
3,QVQLVESGGGLVQAGGSLRLSCAASGFTLVKYVMGWYRQAPGKERELVAAINRSGTSTYYADSVKGRFTISRDNAKNTVYLQMNCLKPDDTAVYYCAADRSRNFDWGQGTQVTVSS,high polyreactivity
4,QVQLVESGGGLVQAGGSLRLSCAASGFTLWLNAMGWYRQAPGKERELLAAITTSDDGTYYADSVKGRFTISRDNAKNTVYLQMNSLKPEETAVYYCAADYYSVQYDYWGQGTQVTVSS,low polyreactivity
5,QVQLVESGGGLVQAGGSLRLSCAASGFTLWLYAMGWYRQAPGKERELVATISYRGDSTYYADSVKGRFTISRDNAKNTVYLQMNSLKPEDTAVYYCARRYTHTGRYYYWGQGTQVTVSS,high polyreactivity
6,QVQLVESGGGLVQAGGSLRLSCAASGFTLWYYAMGWYRQAPGKERELVAGINSGGRTYYADSVKGRFTISRDNAKNTVYLQMNSLKPEDTAVYNCNARAWSSISHNSYIMDYWGQGTQVTVSS,high polyreactivity
7,QVQLVESGGGLVQAGGSLRLSCAASGFTLYRNAMGWNRQAPGKERELVAAISSSGGRTYYADSVKGRFTISRDNAKNTVYLQMNSLKPEDTAVYYCAADFYRYGPQLGYWGQATQVTVSS,high polyreactivity
8,QVQLVESGGGLVQAGGSLRLSCAASGFTPGNVMGWYRQAPGKERELVAAISWSGDSTYYADSVKGRFTISRDNAKNTVYLQMNSLKPEDTAVYYCAARVVGSYRKTYPYGLYYWGQGTQVTVSS,high polyreactivity
9,QVQLVESGGGLVQAGGSLRLSCAASGFTSCDNDMGWYRQAPGKERELVAAISRGGSTNYADSVKGRFTISRDNAKNTVYLQMNSLKPEDTAVYYCATAAVTPVWYDYWGKGTQVTVSS,low polyreactivity
10,QVQLVESGGGLVQAGGSLRLSCAASGFTSRRYVMGWYRQAPGKERELVAAISSRGTSTYYADSVKGRFTISRDNAKNTVYLKMNSLKPEDTAVYYCAAVIRGRTRWLKYDYWGQGTQGTVSS,high polyreactivity
11,QVQLVESGGGLVQAGGSLRLSCAASGFTSSRNAMGWYRQAPGKERELVAAISSGTSTNYADSVKGRFTISRDNAKNTVYLQMNSLKPEDTAVYYCAAGSYSRYLYSLYFDFDYWGQGTQVTVSS,low polyreactivity
12,QVQLVESGGGLVQAGGSLRLSCAASGFTSSYYAMGWYRQAPGKERELVAAISSSGGSTYYADSVKGRFTISRDNAKNTVYLQMNSLKPEDTAVYYCAAARRERAGRQYDYWGQGTQVTVSS,low polyreactivity
13,QVQLVESGGGLVQAGGSLRLSCAASGFTSWHNDMGRYRQATGKERELVAAIDTGTGTYYADSVKGRFTISRDNAKNTVYLQLYSLKPEDTAVYYCAKDDLLVVRIVWFDYWGLGTQVTVSS,low polyreactivity
14,QVQLVESGGGLVQAGGSLRLSCAASGFTVGVYAMGWYRQAPGKERELVAAISSGGSTNYADSVKGRFTISRDNAKNTVYLQMNSLKPEDTAVYYCAADAVSGGQGTADYDYWGQGTQVTVSS,low polyreactivity
15,QVQLVESGGGLVQAGGSLRLSCAASGFTVGVYAMGWYRQAPGKERELVAAISSGGSTNYADSVKGRFTISRDNAKNTVYLQMNSLKPEDTAVYYCAKDVWYLVYYHWKSNRVWQYDYWGQGTQVTVSS,low polyreactivity
16,QVQLVESGGGLVQAGGSLRLSCAASGFTVGYYAMAWYRQAPGKERELVAAISYVGGTTYYADSVKGRFTISRDNAKKTVYLQMNSLKPEDTAVYYCATLYRGSVRYYYWGQGTQVTVSS,high polyreactivity
17,QVQLVESGGGLVQAGGSLRLSCAASGFTVWYYAMGWYRQAPGKVRELVASISSIGGSTYYADSVKGRFTISRENAKNTVYLQMNSLKPEDTAVYYCAARYKFLRGVVRRDYWGQGTQVTVSS,high polyreactivity
18,QVQLVESGGGLVQAGGSLRLSCAASGFTYGANTMGWYRQAPGKERELVADISVRGDRTSYADSVKGRFTISRDNAKNTVYLPMNSLKPEDTAVYYCATDIYQHAKRRYDYWGQGTQVTVSS,low polyreactivity
19,QVQLVESGGGLVQAGGSLRLSCAASGFTYGINAMGWYRQAPGKERELVASISSGSSTTYADSVKGRFTISRDNATNTVYLQMISLKPEDTAVYYCNARPFHIYWRYDYWGQGTQVTVSS,low polyreactivity
20,QVQLVESGGGLVQAGGSLRLSCAASGFTYGRYAMGWYRQAPGKERELVAVISWSGVSTYYADSVKGRFTISRDNAKNTVYLQMNSLKPEDTAVYYCNKRSYHYPYGYDYWGQGTQVTVSS,high polyreactivity
21,QVQLVESGGGLVQAGGSLRLSCAASGFTYLRYAMGWYRQAPGKERELVAAISFSGDTTNYADSVKGRFTISRDNAKNTVYLQMNSLKPEDTAVYYCAASYGGGYYSDRGYYYWGQGTQVTVSS,low polyreactivity
